# According to patent publication US20190330277A1 (PIRBRIGHT INSTITUTE, published 2019):
# B1: MPE8 antibody (antibody, V domains shown)
# VH: EVQLVESGGGLVKPGGSLRLSCAASGFTFSSYSMNWVRQAPGKGLEWVSSISASSSYSDYADSAKGRFTISRDNAKTSLFLQMNSLRAEDTAIYFCARARATGYSSITPYFDIWGQGTLVTVSS
# VL: QSVVTQTPSVSGAPGQRVTISCTGSSSNIGAGYDVHWYQQLPGTAPKLLIYDNNNRPSGVPDRFSASKSGTSASLAITGLQAEDEADYYCQSYDRNLSGVFGTGTKVTVL
# notes: also called mAb MPE8
# B2: D25 antibody (antibody, V domains shown)
# VH: QVQLVQSGAEVKKPGSSVMVSCQASGGPLRNYIINWLRQAPGQGPEWMGGIIPVLGTVHYAPKFQGRVTITADESTDTAYIHLISLRSEDTAMYYCATETALVVSTTYLPHYFDNWGQGTLVTVSS
# VL: DIQMTQSPSSLSAAVGDRVTITCQASQDIVNYLNWYQQKPGKAPKLLIYVASNLETGVPSRFSGSGSGTDFSLTISSLQPEDVATYYCQQYDNLPLTFGGGTKVEIK
# notes: also called mAb D25
# Columns and labels:
# KXsb2 = biological target: T1, KXsb2; test: ELISA, variant from culture supernatant on Ni-NTA plate [continued]
# T1 construct: also called sc-v56
# Experimental: (§1) Initial assessment of all constructs were performed using a 96-well microplate format for high throughput expression followed by an ELISA-based antigenic evaluation as described previously 17. […] Plasmid DNA and TrueFect-Max (United BioSystems, MD) were mixed and added to the growing cells, and the 96-well plate incubated at 37° C., 5% CO2. One day post transfection, enriched medium (high glucose DMEM plus 25% ultra-low IgG fetal bovine serum, 2× nonessential amino acids, 1× glutamine) was added to each well, and the 96-well plate was returned to the incubator for continuous culture.
# [1] = biological target: T2, RB94 DS-CAV1 N70K S104F K117T; test: as above
# T2 construct: also called sc-v41
# Experimental: as §1
# [2] = biological target: T3, sc9-10_DS-CAV1_bRSV(RB94)_Fd_fp1_ig1; test: as above
# T3 construct: also called sc-v44
# Experimental: as §1
# 391-2-DS-Cav1-BZGJ9_gyc4 = biological target: T4, 391-2-DS-Cav1-BZGJ9_gyc4; test: as above
# T4 construct: also called sc-v53
# Experimental: as §1
# 391-2_DS-Cav1-tzsc9 = biological target: T5, 391-2_DS-Cav1-tzsc9; test: as above
# T5 construct: also called sc-v52
# Experimental: as §1
# [3] = biological target: T6, sc9-10_DS-CAV1_bRSV(RB94)_Fd_(hRSV-leader)_ig1; test: as above
# T6 construct: also called sc-v43
# Experimental: as §1
# 391-2-DS-Cav1-SC-IP-1 = biological target: T7, 391-2-DS-Cav1-SC-IP-1; test: as above
# T7 construct: also called sc-v49
# Experimental: as §1
# 391-2_DS-Cav1-tzsc4 [4] = biological target: T8, 391-2_DS-Cav1-tzsc4; test: as above
# T8 construct: also called sc-v39
# Experimental: as §1
# 391-2_DS-Cav1-tzsc2 = biological target: T9, 391-2_DS-Cav1-tzsc2; test: as above
# T9 construct: also called sc-v57
# Experimental: as §1
# [5] = biological target: T10, RB94_sc9-10 DS-CAV1 L373R; test: as above
# T10 construct: also called sc-v38
# Experimental: as §1
# 391-2-DS-Cav1-IP-7 = biological target: T11, 391-2-DS-Cav1-IP-7; test: as above
# T11 construct: also called sc-v46
# Experimental: as §1
# 391-2-DS-Cav1-BZGJ9_gyc2 = biological target: T12, 391-2-DS-Cav1-BZGJ9_gyc2; test: as above
# T12 construct: also called sc-v48
# Experimental: as §1
# 391-2-DS-Cav1-BZGJ9 = biological target: T13, 391-2-DS-Cav1-BZGJ9; test: as above
# T13 construct: also called sc-v47
# Experimental: as §1
# 391-2-DS-Cav1- F-SC_11R = biological target: T14, 391-2-DS-Cav1- F-SC_11R; test: as above
# T14 construct: also called sc-v54
# Experimental: as §1
# 391-2_DS-Cav1-tzsc4 [6] = biological target: T15, 391-2_DS-Cav1-tzsc4; test: as above
# T15 construct: also called sc-v51
# Experimental: as §1
# 391-2-DS-Cav1-IP-2 = biological target: T16, 391-2-DS-Cav1-IP-2; test: as above
# T16 construct: also called sc-v40
# Experimental: as §1
# 391-2_DS-Cav1-tzsc6 = biological target: T17, 391-2_DS-Cav1-tzsc6; test: as above
# T17 construct: also called sc-v58
# Experimental: as §1
# 391-2-DS-Cav1-BZGJ9_gyc3 = biological target: T18, 391-2-DS-Cav1-BZGJ9_gyc3; test: as above
# T18 construct: also called sc-v45
# Experimental: as §1
# 391-2-DS-Cav1-BZGJ9_gyc6 = biological target: T19, 391-2-DS-Cav1-BZGJ9_gyc6; test: as above
# T19 construct: also called sc-v55
# Experimental: as §1
# [7] = biological target: T20, 391-2-DS-Cav1-BZGJ9_gyc10; test: as above
# T20 construct: also called sc-v60
# Experimental: as §1
# KXds2 = biological target: T21, KXds2; test: as above
# T21 construct: also called sc-v50
# Experimental: as §1
# 391-2-DSCav1- F-SC_7R = biological target: T22, 391-2-DSCav1- F-SC_7R; test: ELISA, variant from culture supernatant on Ni-NTA plate;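 note: antigenic evaluation by ELISA of constructs expressed at small scale in 96-well plates after transient plasmid transfection of cells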
# T22 construct: also called sc-v36
# Experimental: as §1
# 391-2wt-F_SC_11R = test: as above
# Experimental: as §1
# 391-2-DS-Cav1-BZGJ9_gyc1 = biological target: T23, 391-2-DS-Cav1-BZGJ9_gyc1; test: as above
# T23 construct: also called sc-v16
# Experimental: as §1
# KXint1 = biological target: T24, KXint1; test: as above
# T24 construct: also called sc-v29
# Experimental: as §1
# 391-2-DS-Cav1-BZGJ9 Long = biological target: T25, 391-2-DS-Cav1-BZGJ9 Long; test: as above
# T25 construct: also called sc-v17
# Experimental: as §1
# [8] = biological target: T26, sc9-10_DS-CAV1_bRSV(RB94)_Fd_pm1_fp1_ig1; test: as above
# T26 construct: also called sc-v15
# Experimental: as §1
# [9] = biological target: T27, RB94 site 0 hRSV DS-Cav1-BZGJ9 Long FdPL; test: as above
# T27 construct: also called sc-v6
# Experimental: as §1
# KXlinker2 = biological target: T28, KXlinker2; test: as above
# T28 construct: also called sc-v35
# Experimental: as §1
# 391-2_DS-Cav1-tzsc7 = biological target: T29, 391-2_DS-Cav1-tzsc7; test: as above
# T29 construct: also called sc-v21
# Experimental: as §1
# 391-2_DS-Cav1-tzsc3 = biological target: T30, 391-2_DS-Cav1-tzsc3; test: as above
# T30 construct: also called sc-v33
# Experimental: as §1
# 391-2-DS-Cav1-IP-4 = biological target: T31, 391-2-DS-Cav1-IP-4; test: as above
# T31 construct: also called sc-v32
# Experimental: as §1
# RB94 DS-Cav1 Long FdPL = biological target: T32, RB94 DS-Cav1 Long FdPL; test: as above
# T32 construct: also called sc-v31
# Experimental: as §1
# [10] = biological target: T33, 391-2-DS-Cav1-BZGJ9 Long S190V; test: as above
# T33 construct: also called sc-v23
# Experimental: as §1
Binder,ELISA binding value (KXsb2),ELISA binding value [1],ELISA binding value [2],ELISA binding value (391-2-DS-Cav1-BZGJ9_gyc4),ELISA binding value (391-2_DS-Cav1-tzsc9),ELISA binding value [3],ELISA binding value (391-2-DS-Cav1-SC-IP-1),ELISA binding value (391-2_DS-Cav1-tzsc4 [4]),ELISA binding value (391-2_DS-Cav1-tzsc2),ELISA binding value [5],ELISA binding value (391-2-DS-Cav1-IP-7),ELISA binding value (391-2-DS-Cav1-BZGJ9_gyc2),ELISA binding value (391-2-DS-Cav1-BZGJ9),ELISA binding value (391-2-DS-Cav1- F-SC_11R),ELISA binding value (391-2_DS-Cav1-tzsc4 [6]),ELISA binding value (391-2-DS-Cav1-IP-2),ELISA binding value (391-2_DS-Cav1-tzsc6),ELISA binding value (391-2-DS-Cav1-BZGJ9_gyc3),ELISA binding value (391-2-DS-Cav1-BZGJ9_gyc6),ELISA binding value [7],further results
B1,0.0752,0.201,0.0965,0.0901,0.1,0.105,0.155,0.263,0.109,0.258,0.0761,0.12,0.0926,0.0668,0.096,0.217,0.0583,0.123,0.0866,0.0498,ELISA binding value (KXds2): 0.143; ELISA binding value (391-2-DSCav1- F-SC_7R): 0.312; ELISA binding value (391-2wt-F_SC_11R): 0.887; ELISA binding value (391-2-DS-Cav1-BZGJ9_gyc1): 1.55; ELISA binding value (KXint1): 0.599; ELISA binding value (391-2-DS-Cav1-BZGJ9 Long): 1.45; ELISA binding value [8]: 1.73; ELISA binding value [9]: 2.2; ELISA binding value (KXlinker2): 0.361; ELISA binding value (391-2_DS-Cav1-tzsc7): 1.5; ELISA binding value (391-2_DS-Cav1-tzsc3): 0.433; ELISA binding value (391-2-DS-Cav1-IP-4): 0.541; ELISA binding value (RB94 DS-Cav1 Long FdPL): 0.489; ELISA binding value [10]: 1.19
B2,0.132,0.17,0.191,0.138,0.132,0.197,0.0985,0.219,0.0883,0.27,0.201,0.144,0.183,0.161,0.138,0.197,0.138,0.164,0.135,0.136,ELISA binding value (KXds2): 0.109; ELISA binding value (391-2-DSCav1- F-SC_7R): 0.225; ELISA binding value (391-2wt-F_SC_11R): 0.739; ELISA binding value (391-2-DS-Cav1-BZGJ9_gyc1): 1.4; ELISA binding value (KXint1): 0.416; ELISA binding value (391-2-DS-Cav1-BZGJ9 Long): 1.3; ELISA binding value [8]: 1.67; ELISA binding value [9]: 2.16; ELISA binding value (KXlinker2): 0.321; ELISA binding value (391-2_DS-Cav1-tzsc7): 0.997; ELISA binding value (391-2_DS-Cav1-tzsc3): 0.383; ELISA binding value (391-2-DS-Cav1-IP-4): 0.333; ELISA binding value (RB94 DS-Cav1 Long FdPL): 0.392; ELISA binding value [10]: 1.13
